Laboratory results as given in PMC5469503 (PLoS Pathogens, 2017).

How the values were obtained:
[1] = target: V-ATPase from S. cerevisiae, intact, detergent solubilized (A3B3CDE3FG3Hac8c'c''def), 3xFLAG on the A-subunit (S. cerevisiae) (UniProt P16140); assay: cryo-EM structure
[2] = target: T1, V1 subcomplex of the V-ATPase (Saccharomyces cerevisiae, UniProt P16140+P17255); assay: fluorescence titration (TNP-ATP emission); settings: pH 7.9, 10.0 °C, 25 mM Tris-HCl, 0.15 M NaCl, 1 mM MgCl2, 0.5 mM DTT, 0.25 μM V1; nucleotide site
T1 construct: gene VMA1

“SidK, full length (residues 1 to 573) (natural protein)” showed a stoichiometry N [1] of 3.

Work on “2',3'-O-(2,4,6-trinitrophenyl) adenosine 5'-triphosphate [TNP-ATP]” yielded a Kd [2] of 160 ± 50 nM.
